The source of these data is paper PMC6287813.

The test has as its target Rabbit skeletal actin, filamentous (pre-formed actin filament) (rabbit) (UniProt P68135). The test can be described thus: single-filament TIRF microscopy with microfluidics (kymographs); actin filaments tethered at one point through biotinylated spectrin-actin seeds on streptavidin/PLL-PEG-biotin coverslip, stained with 0.15 uM Alexa Fluor 488-phalloidin; AF647-Tpm1.1 flowed in at various concentrations (62.5, 250, 500 nM shown), then washed with buffer only for dissociation; buffer F (5 mM Tris pH 7.8, 100 mM KCl, 1 mM MgCl2, 0.2 mM ATP, 0.2 mM EGTA, 0.1 mM CaCl2, 10 mM DTT, 1 mg/mL BSA).

For the substance “Murine tropomyosin isoform Tpm1.1, labelled with Alexa Fluor 647 at Cys-190 (natural protein)”, the elongation rate of the Tpm1.1 strand on actin per feed concentration, towards the barbed end (nm s^-1 nM^-1) was determined as 0.88; the elongation rate of the Tpm1.1 strand on actin per feed concentration, towards the pointed end (nm s^-1 nM^-1) stood at 1.1; the nucleation time tnuc (Kaplan-Meier estimate, filament of Fig 3C, 62.5 nM Tpm1.1) was 1370 s; the weighted average elongation rate on one filament, towards the barbed end was determined as 136 nm/s. The same substance displayed a weighted average elongation rate on one filament, towards the pointed end of 104 nm/s.
